Experimental data from paper PMC8092395, “Development of Stable Chimeric IL-15 for Trans-Presentation by the Antigen Presenting Cells” (Frontiers in Immunology, 2021).
Values belong to the molecule of their own block, whether it stands above or below them.

Experiments:
[1] = biological target: human chimeric IL-15 (huIL-15 + huIgHG2 chimera; IL-2SP-N72DIL-15CDS-K322AIgHg2) (human); experiment: non-reducing SDS-PAGE; purified chimeric IL-15 loaded on SDS-PAGE under non-reducing or reducing conditions, Coomassie stain, densitometry of dimer vs. monomer
[2] = biological target: human chimeric IL-15 (huIL-15 + huIgHG2 chimera; IL-2SP-N72DIL-15CDS-K322AIgHg2) (human); experiment: SEC; analytical size-exclusion HPLC, Zorbax Bio Series GF-250 column, PBS mobile phase, 1 ml/min; 20 µl of 1 μg/ml chimeric IL-15; OVA and BSA as standards
[3] = biological target: the molecule itself; experiment: non-reducing SDS-PAGE; purified chimeric IL-15 loaded on SDS-PAGE under non-reducing or reducing conditions, Coomassie stain, densitometry of dimer vs. monomer

- stoichiometry N [1]: 2
- stoichiometry N [2]: 2
Molecule: human chimeric IL-15 (huIL-15 + huIgHG2 chimera; IL-2SP-N72DIL-15CDS-K322AIgHg2) (Fc fusion)

B1: mouse chimeric IL-15 (mIL-15 + mIgHG2a chimera) (Fc fusion)
chain: GIHVFILGCVSVGLPKTEANWIDVRYDLEKIESLIQSIHIDTTLYTDSDFHPSCKVTAMNCFLLELQVILHEYSNMTLNETVRNVLYLANSTLSSNKNVAESGCKECEELEEKTFTEFLQSFIRIVQMFINTSGSAKTTAPSVYPLAPVCGDTTGSSVTLGCLVKGYFPEPVTLTWNSGSLSSGVHTFPAVLQSDLYTLSSSVTVTSSTWPSQSITCNVAHPASSTKVDKKIEPRGPTIKPCPPCKCPAPNLLGGPSVFIFPPKIKDVLMISLSPIVTCVVVDVSEDDPDVQISWFVNNVEVHTAQTQTHREDYNSTLRVVSALPIQHQDWMSGKEFKCKVNNKDLPAPIERTISKPKGSVRAPQVYVLPPPEEEMTKKQVTLTCMVTDFMPEDIYVEWTNNGKTELNYKNTEPVLDSDGSYFMYSKLRVEKKNWVERNSYSCSVVHEGLHNHHTTKSFSRTPGK
- stoichiometry N [3]: 2
